Patent US20240245805A1 (Orna Therapeutics, Inc., priority 2020, published 2024)

B1: Parabovirus C (nucleic acid)
DNA: GATGTATCCCCATCCCCCAGTGTGTATGCCATACTGCATAGCTCGCCTATGCCCTATGGATTCACAACCCTTTCATATACCCTCCCTACCCAACCCCGTAACCACATGCTTTACTCCGCTTGGGGTTTTGCGGCCCCATGTTGTGACGAAATGGCTACGCAATCAATGCGGCTAATGGGGCCTGCCGCTTTTAAGTGGCCCCAGTTAGAAGTTTATGCACACCCGCCCATTAGGAGGCCACCAGCCAGGTGGTCAGAGGGCAAGCACTTCTGTTTCCCCGGTGAAGTTTGATAAGCTGTGCCCACGGCTGAAGCAGACAGATCCGTTACCCGCCTCACTACTACGAGACGGCTAGTAGTGTGTAATATCCGAATTTCATTGATCCGGGTGTTCCCCCCACCCAGAAACGTGTGATGAGGAGCGGCACCCCTCCTATGGCAACATAGGGCCTCTCCTGCGCTGGCACACGGGCTCTATGAGCATGAAATCAGGAGAAAGTCACACGAAGACCTTATTGTGCTAGTGTTGATTCCTCCGCCCCCCTGAATGCGGCTAATCCCAACTCCGGAGCGCCCGCTGGCAAACCCGCCAGAAGAGCGTCGTAATGCGTAAGTCTGGAGCGGAACCGACTACTTTGGGTGTGGCGTGTTTCCTTTATTTCCTTTGTATTTGTAT
modifications: lipid formulation; Parabovirus C
B2: HRVA73 (nucleic acid, listed as Rhinovirus sp.)
chain: TTAAAACTGGGTTTGGGTTGTTCCCACCCAAACCACCCACGCGGTGTTGTACACTGTTATTCCGGTAACCTTGTACGCCAGTTTTATATCCCTTCCCCCCCTTGTAACTTAGAAGACATGCGAATCGACCAATAGCAGGCAATCAACCAGATTGTCACCGGTCAAGCACTTCTGTTTCCCCGGCTCTCGTTGATATGCTCCAACAGGGCAAAAACAATTGGAGTCGTTACCCGCAAGATGCCTACGCAAAACCTAGTAGCATCTTCGAAGATTTTTGGTTGGTCGCTCAGTTGCTACCCCAGCAATAGACCTGGCAGATGAGGCTAGAAATACCCCACTGGTGACAGTGTTCTAGCCTGCGTGGCTGCCTGCACACCCACACGGGTGTGAAGCCAAAGATTGGACAAGGTGTGAAGAGTCACGTGTGCTCATCTTGAGTCCTCCGGCCCCTGAATGCGGCTAACCTTAACCCCGTAGCCATTGCTCGCAATCCAGCGAGTATATGGTCGTAATGAGTAATTACGGGATGGGACCGACTACTTTGGGTGTCCGTGTTTCACTTTTTACTTATCAATTTGCTTATGGTGACAATATATATAGATATATATTGACACC
modifications: lipid formulation
B3: EV J 1631 (nucleic acid, listed as Enterovirus sp.)
chain: CACCCTGAGGGCCCACGTGGCGTAGTACTCTGGTATCAAGGTACCTTTGTACGCCTATTTTATTTCCCTTCCCCCACAGTAACTTAGAAGCTTATCTCATAGTTCAACAGTAGGGTCACTAACCAAGTGGCTCAGCGAACAAGCACTTCTGTTTCCCCGGTCCTAGTACCTGTGAAGCTGTACCCACGGCGGAAGGGGAAAAAGATCGTTATCCGGCCCCCTACTTCGGAAAGCCTAGTAACACCATTGAAGCAATCGAGTGTTGCGCTCAGCACAGTAACCCCTGTGTAGCTTTGGTTGATGAGTCTGGGCACTCCCCACTGGCGACAGCGGCCCAGGCTGCGTTGGCGGCCAACCGACTCGGGCAACCGGGTCGGACGCTCGTTTGTGGACATGGTGTGAAGAGCCTACTGAGCTAGAGGGTAGTCCTCCGGCCCCTGAATGCGGATAATCCTAACCCCGGAGCACCCACACTCAATCCAGAGTGCAGGATGTCGTAACGCGTAAGTCTGGGACGGAACCGACTACTTTGGGTGTCCGTGTTTCCTGTTTTACTTACTTTGGCTGCTTATGGTGACAATCTAGTGTTGTTACCATATAGCTATTGGATTGGCCATCCGGTGTTTTGAATTGTGTGTTTATACTAATTCTTTTACATATCACAGACAACCAAAT
modifications: lipid formulation
B4: HRVC3 QPM (nucleic acid, listed as Rhinovirus sp.)
chain: TTAAAGCTGGATCATGGTTGTTCCCACCATGATTACCCACGCGGTGCAGTGGTCTTGTATTACGGTACATTTCCATACCAGTTTTATACACCCCACCCCGAAACTCATAGAAGTTTGTACACAATGACCAATAGGTGGTGGCCATCCAGGTCGCTAATGGTCAAGCACTTCTGTTTCCCCGGCACCCTTGTATACGCTTCACCCGAGGCGAAAAATGAGGTTGTCGTTATCCGCAAAGTGCCTACGAAAAGCCTAGTAACACTTTGAAAACCCATGGTTGGTCGCTCAGCTGTTTACCCAACAGTAGACCTGGCAGATGAGGCTAGACATTCCCCACCAGCGATGGTGGTCTAGCCTGCGTGGCTGCCTGCACACCCTGCCGGGTGTGAAGCCAGAAAGTGGACAAGGTGTGAAGAGCCTATTGTGCTCACTTTGAGTCCTCCGGCCCCTGAATGTGGCTAACCCTAACCCCGTAGCTGTTGCATGTAACCCAACATGTATGCAGTCGTAATGGGCAACTATGGGATGGGACCAACTACTTTGGGTGTCCGTGTTTCCTGTTTTACTTTTTCATTGCTTATGGTGACAATTGTATCTGATACACTTGTTACC
modifications: lipid formulation
B5: Felipivirus 127F (nucleic acid, listed as Felipivirus sp.)
chain: GATGTCGGATGACGGCTGGCCACCGGGGAAAAACGGCAAATGTGCACCACCTCTGCAACCCACGCCGACCACGTTTAACCATGGCGTTAGTAGGAGTGGACCACTGCAGTGGGCTCTGGTGTGCGACAGTCAGTGGTAGAGTAGACAGTCCTGACTGGGCAATGGGACCGCGTTGCGTATCCCTAGGTGGCATCGAGATTCCTCTGCTACCCACCAGCGTGGACTCCTATGGGGGGGGCCCCATAGGCTAGGTCTATACTGCCTGATAGGGTCGCGGCTGGTCGACCACTGACTGTATAACCAGTTGTAACTCACT
B6: HRVB27 (nucleic acid, listed as Rhinovirus sp.)
chain: TTAAAACAGCGGATGGGTATCCCACCATCCGACCCACAGGGTGTAGTGCTCTGGTATTTTGTACCTTTGCACGCCTGTTTCCCCATTGTACCCCTCCTTAAATTTCCTCCCCAAGTAACGTTAGAAGTTTAAGGAAACAAATGTACAATAGGAAGCATCACATCCAGTGGTGTTATGTACAAGCACTTCTGTTTCCCCGGAGCGAGGTATAAGTGGTACCCACCGCCGAAAGCCTTTAACCGTTATCCGCCAATCAACTACGTAATGGCTAGTATTACCATGTTTGTGACTTGGTGTTCGATCAGGTGGTTCCCCCCACTAGTTTGGTCGATGAGGCTAGGAACTCCCCACGGGTGACCGTGTCCTAGCCTGCGTGGCGGCCAACCCAGCTTTTGCTGGGACGCCTTTTTACAGACATGGTGTGAAGACCTGCATGTGCTTGATTGTGAGTCCTCCGGCCCCTGAATGCGGCTAACCTTAACCCCGGAGCCTTGCAACATAATCCAATGTTGTTGAGGTCGTAATGAGTAATTCTGGGATGGGACCGACTACTTTGGGTGTCCGTGTTTCCTTTTATTCTTTATATTGTCTTATGGTCACAGCATATATAGCATATATACTGTGATC
modifications: lipid formulation
B7: Simian Sapelovirus 2 (nucleic acid, listed as Sapelovirus sp.)
DNA: TTTTAACTTGTTATGACATTCAAGGAAAAAATGTCTTTTTCATTATGGGACTGACCTGTTTATGAACATGAGCAGCGGCACTGCTCCACGGGCTATCCGTGTAAGAAATATTGATTATTCTTATGGATCATGATTTCAGGGTTGGCCGCCCAGTCTAAAAGGCAATTGTGGTAAGCTATGTAAGTAGTTGGCTGTTGAAAGGAGCCAAGTACATCCTAGGTCTACGCTGTGCGGGCCGAAGTAAGACTTGGAACAACTCTGAGTAGGCAGTTTTTCTCTTTAGCCCAACACGACCGCATACTGAAGAGCTAGAGGCACTTTGGGGCAAAGGTAAAAGCATTGCTTAGACCGAATGTTCAATGAGACCTTGACGAGTGCTGTCACAGTGTCCCCTGATGGCAGTATGGCGCATGCTCTTGGCATTACCCATATGTGTATCTATAGGGGGGGGGCCCCCTATACTTAGTCTAGTGCTACCTGACAGGGCCGCGGCTGGTCGTCGGTGTGTGGTATAACCAGTAGTAATCCCCCATGGATTGCTTTAACTCCCCCTCCTCCCTCAACAAAACTTTCTCTAAG
B8: Rabovirus A NYC-B10 (nucleic acid)
DNA: CCGACCCCACTGGTCGAAGGCCACTTGGCAATAAGACTGGTGGAACAAGGTCGCCTGTAGTTGATTGGAACCTTCTTTCTAATGACTTATGTCAGCGGTGCTACTCACACCGTAACTCTCCTACCCTATCCCCACGCTTGTGGAACTAGGAGGGGATGAGTGATTCAAGTAAGTACTGTCAGAATGGTGAAAATAATCTGATTCTGAAACGCTATGGATCCATCGAAAGATGGGGCTACACGCCTGCGGAACAACACATGGTAACATGTGCCCCAGGGGCCGAAAGCCACGGTGATAGGATCACCCGTGTAGTTTGAGATCATATCAATGTTCATAGTCTAGTAAGATGATTTGAAATCTAACTGGTCTGATGGCTAACTGCTTGTCTTATTGCGGCCTAAGGATGTCCTGCAGGTACCTTTAGAGAACCTTAAGAGACTATTGATCTGAGCAGGAGCCAAGGTGGTCTTTCCCAGCCTTGGTTAAAAAGCGTCTAAGCCGCGGCAGGGGGCGGGAGGCCCCCTTTCCTCCCAAACTATAATATAGATTGT
modifications: lipid formulation; Rabovirus A
B9: EV K (nucleic acid)
chain: TCAGCCTGACGCAAGTGCCTCCATTGGAGTCTCTCCAAGCCCTCCGGGGCTTGGAGGGCGCCGACCCCCTGCCTAGGGGGAGCCCACGACACGGCTGGAGTCCATTGGCACACCGCAGCCACGATTCAAGCCAGAATTGAAAGCGGGAAGCACTTCTGTCTCCCCGGTGTGGATCATACGCTGTACCCACGGCGAAAAGTGAAGCATCGTTACCCGACTCGGTACTTCGAGAAGCCCAGTACAGTTGTGGATCTCTGCAGGGTATACGCTCAGCGTGACCCCTACGTAGTTCCTTGAGATGGCTGAGAGAACACCCCACGGGCGACCGTGTCTCTCGGCGCGTGGCTCAAGGCCGGGCCTTCAGTGGCTCGGTGCCTTGCAGAGTGAAGCCTCCGAACAGCCTATTGAGCTACCGTTTAGCCTCCGCCCTCTTGAATGCGGCTAATCCTAACCATGGAGCGCCCGCCCACAGTCCAGTGGGTAGAGCGTCGTAACGCGCAAGTCCGTGGCGGAACCGACTACTTTAGAGTGGCGTGTTTCCAATTTATCCTTTATAAAGTTGCTTATGGTGACACCACAAGAGATCCACGATTTCTTGTTTCTTATCACTGAGACACAAGTCATATTCATCAATCTTTATTGCGGAATTAACTTGGTGCGTCCAAACACATCAGC
modifications: lipid formulation; Enterovirus K

Test system: HEK293 cells
Type: cell-based, human
Conditions: circular RNA encoding Gluc with the listed IRES (UTR truncated to 675 nt) transfected into HEK293 cells; supernatant after 24 hours

Row | Molecule | Expression (luminescence from secreted Gluc protein)
1 | B1 | 1.83E+07
2 | B2 | 1.08E+08
3 | B3 | 9.88E+07
4 | B4 | 1.64E+07
5 | B5 | 8.92E+06
6 | B6 | 2.04E+08
7 | B7 | 4.24E+07
8 | B8 | 1.24E+06
9 | B9 | 7.52E+07
